Results from the nanobody polyreactivity screen of Harvey et al. (2022).

Experiment: yeast display, Sf9 membrane polyspecificity reagent, FACS + sequencing; frameworks hold sequencing errors
Method in brief: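 Nanobodies came from a synthetic yeast display library in Saccharomyces cerevisiae BJ5465, induced with galactose for 36–48 hours and stained for 1 hour at 4 °C with 10% biotinylated, detergent-solubilized Sf9 membrane reagent. Cells were enriched on streptavidin microbeads and then FACS-sorted, with low and high (top ~1%) gates set on anti-HA fluorescence for expression and streptavidin fluorescence for reagent binding. Each polyreactivity label reflects the gate a clone came from. Genes were amplified by colony PCR, sequenced by MiSeq 2 × 250 and filtered by CDR length.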

## QVQLVESGGGLVQAGGSLRLSCAASGIIFDEYAMGWYRQAPGKERELVAVIDWSGGSTYYADSVKGRFTISRDNAKKTVYLQMNSLKPEVTAVYYCAAEDDSSTPEFDYWGQGTQVTVSS
  polyreactivity (PSR sort gate): low polyreactivity

## QVQLVESGGGLVQAGGSLRLSCAASGIIFDGNAMGWYRQAPGKERELVAAISSRGSRTYYADSVKGRFTISRDHAKNTVYLQMNSLKPEDTAVYYCNAGYGFRSYGYDPWGQGTQVTVSS
  polyreactivity (PSR sort gate): high polyreactivity

## QVQLVESGGGLVQAGGSLRLSCAASGIIFDGNAMGWYRQAPGKERELVAAISSRGSRTYYADSVKGRFTISRDNAKNTVYLQMNSLKPEDTAVYSCNAGYVFRSYGYDPWGQGTQVTVSS
  polyreactivity (PSR sort gate): high polyreactivity

## QVQLVESGGGLVQAGGSLRLSCAASGIIFDGYAMGWYRQAPGKERELVAAISRRGGSTYYADSVKGRFTISRDNAKNTVYLQMNSLKPEDTAVYYCAAEYVYWRIGQYDYWGQGTQVTVSS
  polyreactivity (PSR sort gate): high polyreactivity

## QVQLVESGGGLVQAGGSLRLSCAASGIIFDINAMGWYRQAPGKERELVAAITTSVDSTYYADSVKGRFTISRDTAKNTVYLQMNSLKPEDTAVYYCAVAFVQFTQYDYWGQGTQVTVSS
  polyreactivity (PSR sort gate): low polyreactivity

## QVQLVESGGGLVQAGGSLRLSCAASGIIFDKNAMGWYRQAPGKERELVAVITRGGSTYYADSVKGRFTISRDNAKNTVYLQMNSLKPEDTAVYYCAARYTPGFGYWGQGTQVTVSS
  polyreactivity (PSR sort gate): high polyreactivity

## QVQLVESGGGLVQAGGSLRLSCAASGIIFDSYAMGWYRQAPGKERELVAAITSDSGRTYYADSVKGRFTISRDNAKNTVYLQMNSLKPEDTAVYYCAKRWDGPYDYWGHGTQVTVSS
  polyreactivity (PSR sort gate): low polyreactivity

## QVQLVESGGGLVQAGGSLRLSCAASGIIFDTYAMGWYRPAPGKEREFVARISYSGGTTYYADSVKGRFTSSRDNAKNTVYLQMNSLKPEDTAVYYCATVSRRFYRWSSRYDYWGQGTQVTVSS
  polyreactivity (PSR sort gate): high polyreactivity

## QVQLVESGGGLVQAGGSLRLSCAASGIIFDTYAMGWYRQAPGKERELVAAISRSGDTTYYADSVKGRFTISRDNAKNTVYLQMNSLKPEDTAVYYCNRGNRWNFDSWGQGTQVTVSS
  polyreactivity (PSR sort gate): high polyreactivity

## QVQLVESGGGLVQAGGSLRLSCAASGIIFDYTAMGWYRQAPGKERELVAAITSTDNTNYADSVKGRFTISRDNAKNTVYLQMNSLKPEDTAVYYCNTDYWLSVVYAMDYWGQGTQVTVSS
  polyreactivity (PSR sort gate): low polyreactivity

## QVQLVESGGGLVQAGGSLRLSCAASGIIFDYYAMGWYRQAPGKERELVATITSGGSTNYADSVKGRFTISRDNAKNTVYLQMNSLKPEDTAVYYCAKEYFATWLIPKYDYWGQGTQVTVSS
  polyreactivity (PSR sort gate): low polyreactivity

## QVQLVESGGGLVQAGGSLRLSCAASGIIFEGKARGWYRQAPGTERELVAAISTSTGRTYYADSVKGRFTISRDNAKNTVYLQINSLKPEDTAVYYCAAYIRTTRFDYWGQGTQVTVSS
  polyreactivity (PSR sort gate): high polyreactivity

## QVQLVESGGGLVQAGGSLRLSCAASGIIFEGYAMGWYRQAPGKERELVAAISQSGGSTRYADSVKGRFTISRDNAKNTVYLQMNSLKPEDTAVYYCAKEVWNWGPYYYWGQGTQVTVSS
  polyreactivity (PSR sort gate): low polyreactivity

## QVQLVESGGGLVQAGGSLRLSCAASGIIFELYAMGWYRQAPGKEREFVAAINFSDGSTDYADSVKGRFTISRDNAKNTVYLQMNSLKPEDTAVYYCNADTIAYGSIIHGYWGQGTQVTVSS
  polyreactivity (PSR sort gate): low polyreactivity

## QVQLVESGGGLVQAGGSLRLSCAASGIIFESYAMGWYRQAPGKERELVAAISWDGGSTYYADSVKGRFTISRDNAKNTVYLQMNSLKPEDTAVYYCAAESYGIYDGYDYWGQGTQVTVSS
  polyreactivity (PSR sort gate): high polyreactivity

## QVQLVESGGGLVQAGGSLRLSCAASGIIFEYYAMGWYRQAPGKERELVAAITRGGSTYYADSVKGRFTISRDNAKNTVYLQMNSLKPEDTAVYYCAADRYYYEYEYWGQGTQVTVSS
  polyreactivity (PSR sort gate): low polyreactivity

## QVQLVESGGGLVQAGGSLRLSCAASGIIFFKYGMGWYRQAPGKERELVAAITSGGSTYYADSVKGRFTISRDNAKNTVYLQMNSLKPEDTAVYYCNAQRYWRKVWEYESWGQGTQVTVSS
  polyreactivity (PSR sort gate): low polyreactivity

## QVQLVESGGGLVQAGGSLRLSCAASGIIFFLYAMGWNRQAPGKERELVAAISSGGSTYYADSVKGRFTISRDNAKYTVYLQMNSLKPEDTAVYYFIARYWPFRYYYWGQGTQVTVSS
  polyreactivity (PSR sort gate): high polyreactivity

## QVQLVESGGGLVQAGGSLRLSCAASGIIFFSNTMGWYRQAPGKEREFVAAITWSTGNTYYADSVKGRFTISRDNAKNTVYLQMNSLKPEDTAVYYCYAEYLVITWYGGVEFDYWGQGTEVTVSS
  polyreactivity (PSR sort gate): low polyreactivity

## QVQLVESGGGLVQAGGSLRLSCAASGIIFGGYAMGWYRQAPGKERELVAAIDSSGSSTYYADSVKGRFTISRDNAKNTVYLQMNSLKPEDTAVYYCNAASSGHSGRLTSIINDYWGQGTQVTVSS
  polyreactivity (PSR sort gate): high polyreactivity

## QVQLVESGGGLVQAGGSLRLSCAASGIIFGLNAMGWYRQAPGKERELVAAIRRRGGSTYYADSVKGRYTISRDNAKTTVYLQMNSLKPEDTAVYYCAAAGGRYSRAAYDYWGQGTQVTVSS
  polyreactivity (PSR sort gate): low polyreactivity

## QVQLVESGGGLVQAGGSLRLSCAASGIIFGLYAMGWYRQAPGKERELVAAITRSGGRTYYADSVKGRFTISRDNAKNTVYFQMNSLKPEDTAVYFCAADASGHSYDYWGQGTEVTVSS
  polyreactivity (PSR sort gate): high polyreactivity

## QVQLVESGGGLVQAGGSLRLSCAASGIIFGRYAMGWYRQAPGKERELVAAINASGGSTYYADSVKGRFTISRDNAKNTVYLQMNSLKPEDTAVYYCATVHVWGFVYVGSGYWGQGTQVTVSS
  polyreactivity (PSR sort gate): high polyreactivity

## QVQLVESGGGLVQAGGSLRLSCAASGIIFGRYAMGWYRQAPGKERELVAAINGSGGSTYYADSVKGRFTISRDNAKNTVYLQMNSLKPEDTAVYYCAANGFLRNGYWGQGTQVTVSS
  polyreactivity (PSR sort gate): high polyreactivity

## QVQLVESGGGLVQAGGSLRLSCAASGIIFGRYAMGWYRQAPGKERELVAAISSRGGSTYYADSVKGRFTISRDNAKNTVYLQMNSLKPEDTAVYYCNKDDERGKLYYWGQGTQVTVSS
  polyreactivity (PSR sort gate): high polyreactivity

## QVQLVESGGGLVQAGGSLRLSCAASGIIFGRYAMGWYRQAPGKERELVAAITWSGGGTYYADSVKGRFTISRDNAKNTVYLQMNSLKPEDTAVYYCAARTTPHWGYVSTNYWGQGTQVTVSS
  polyreactivity (PSR sort gate): low polyreactivity

## QVQLVESGGGLVQAGGSLRLSCAASGIIFGRYAMGWYRQAPGKERELVATSSRGGGRTYYADSVKGRFTISRDNAKYTVYLLMNSLIPEDTAVYYCASYFYRGGLDSWGQGTQVTVSS
  polyreactivity (PSR sort gate): high polyreactivity

## QVQLVESGGGLVQAGGSLRLSCAASGIIFGRYARGWYRQAPGKDRELVATISYRGGRTNYADSVKGRFTISRDNAKNTVYLQSNSLKPEDTAVYDCAAPHFSYSGGTHDYWGQGTQVTVSS
  polyreactivity (PSR sort gate): high polyreactivity

## QVQLVESGGGLVQAGGSLRLSCAASGIIFGRYTMGWYRQAPGKERELVAAITSSGITYYADSVKGRFTISRDNAKNTVYLQMNSLKPEETAVYYCNADYSIPGYYWPYDYWGQGTQVTVSS
  polyreactivity (PSR sort gate): low polyreactivity

## QVQLVESGGGLVQAGGSLRLSCAASGIIFGSNTMGWYRQAPGTERELVAAITSSDGSTHYADSVKGRFTISRDNAKNTVYLQMNRLKPEDTAVYYCAARKVTYGHSYGYDYWGQGTQVTVSS
  polyreactivity (PSR sort gate): low polyreactivity

## QVQLVESGGGLVQAGGSLRLSCAASGIIFGSNVMGWYREAPGIERELVAAINYGGGSTYYADSVKGRFTISRDNAKKTVYLQMNSLKPEDTAVYYCAARGSRDYRYDYWGQGTQVTVSS
  polyreactivity (PSR sort gate): low polyreactivity

## QVQLVESGGGLVQAGGSLRLSCAASGIIFGTYTMGWYRQAPGKERELVAAITYSGGRTYYADSVKGRFTISRDNAKNTVYLQMNSLKPEDTAVYYCAAYRSSWGYSPYDYWGQGTQVTVSS
  polyreactivity (PSR sort gate): high polyreactivity
